{"source": "patent US11746336B2", "about": "“Producing 3-hydroxycarboxylic acid and ketone using polyketide synthases” (The Regents of the University of California, priority 2014, dated 2023)", "key": {"LipPks1+TE [1]": {"target": "T1, LipPks1+TE (Kitasatospora aureofaciens, UniProt Q30CS2)", "test": "Steady-state kinetic analysis of LipPks1+TE, extension substrate", "assay_type": "biochemical, Streptomyces aureofaciens Tü117", "conditions": "tested as potential extender substrate (data not shown)", "description": "Each time point was set up in a reaction volume of 75 μL. Samples containing 10 μM, 20 μM, or 40 μM methylmalonyl-CoA were individually incubated with 500 μM isovaleryl-CoA and 500 μM NADPH in the presence of 0.5 μM LipPks1+TE in 100 mM phosphate buffer, pH 7.2, containing 2.5 mM TCEP at 23° C. The reactions were quenched at different time points by adding 75 μL of methanol and subsequently filtered with an Amicon Ultra-0.5 mL Centrifugal Filter, 3K device (Millipore) at 23° C. 10 μL of the resulting solutions were analyzed by LC-MS. Authentic standard 1e was used to quantify the products in the LC-MS analysis. We assumed that ionization efficiencies of diastereomers were identical.\nLC separation of the enzymatically generated products conducted at 50° C. with an Inertsil ODS-3 reverse-phase column (250 mm length, 2.1 mm internal diameter, […] particle size; GL Sciences) using a 1100 series high-performance liquid chromatography system (Agilent Technologies). The mobile phase was composed of 0.2% formic acid in water (solvent A) and 0.2% formic acid in methanol (solvent B). Products were separated using the following gradient: 60% to 100% B for 10 min, held at 100% B for 2 min, 100% to 60% B for 1 min, held at 60% B for 17 min. A flow rate of 0.14 mL/min was used throughout. […]"}, "LipPks1+TE [2]": {"target": "T1, LipPks1+TE", "test": "Steady-state kinetic analysis of LipPks1+TE, starter substrates (LC-MS quantification of products 1a-f)", "assay_type": "biochemical, Streptomyces aureofaciens Tü117", "procedure": "(§1) A Bradford protein assay was used to measure the concentration of LipPks1+TE. […] Each time point was set up in a reaction volume of 75 μL. Samples containing 20 μM, 40 μM, 80 μM, 160 μM, or 320 μM of acyl-CoA were individually incubated with 200 μM methymalonyl-CoA and 500 μM NADPH in the presence of 0.5 μM LipPks1+TE in 100 mM phosphate buffer, pH 7.2, containing 2.5 mM TCEP at 23° C. The reactions were quenched at different time points by adding 75 μL of methanol and subsequently filtered with an Amicon Ultra-0.5 mL Centrifugal Filter, 3K device (Millipore) at 23° C. 10 μL of the resulting solutions were analyzed by liquid chromatography-mass spectrometry (LC-MS). […] We assumed that ionization efficiencies of diastereomers were identical.\n(§2) LC separation of the enzymatically generated products conducted at 50° C. with an Inertsil ODS-3 reverse-phase column (250 mm length, 2.1 mm internal diameter, 3 μM particle size; GL Sciences) using a 1100 series high-performance liquid chromatography system (Agilent Technologies). The mobile phase was composed of 0.2% formic acid in water (solvent A) and 0.2% formic acid in methanol (solvent B). Products were separated using the following gradient: 60% to 100% B for 10 min, held at 100% B for 2 min, 100% to 60% B for 1 min, held at 60% B for 17 min. A flow rate of 0.14 mL/min was used throughout.\n(§3) The LC system was coupled to an Agilent Technologies LC-MSD SL electrospray ionization mass (ESI MS) spectrometer. Nitrogen gas was used as both the nebulizing and drying gas to facilitate the production of gas-phase ions. The drying and nebulizing gases were set to 10 L/min and 20 lb/in2, respectively, and a drying gas temperature of 300° C. was used throughout. ESI was conducted in the negative-ion mode with a capillary voltage of 4 kV. […] The instrument was tuned for a range of m/z 50 to 3000 via the Agilent ES tuning mix. Data acquisition and processing were performed by an Agilent Chemstation (Agilent Technologies; Santa Clara, Calif.)."}, "[3]": {"test_system": "CCCC(=O)SCCNC(=O)CCNC(=O)[C@H](O)C(C)(C)COP(=O)(O)OP(=O)(O)OC[C@H]1O[C@@H](n2cnc3c(N)ncnc32)[C@H](O)[C@@H]1OP(=O)(O)O", "test": "purified protein, by the assay type", "conditions": "other: KM of the starter acyl-CoA, 200 μM methylmalonyl-CoA, 500 μM NADPH, 0.5 μM LipPks1+TE, pH 7.2, 23° C."}, "[4]": {"test_system": "CC(C)CC(=O)SCCNC(=O)CCNC(=O)[C@H](O)C(C)(C)COP(=O)(O)OP(=O)(O)OC[C@H]1O[C@@H](n2cnc3c(N)ncnc32)[C@H](O)[C@@H]1OP(=O)(O)O", "test": "Steady-state kinetic analysis of LipPks1+TE, starter substrates (LC-MS quantification of products 1a-f)", "assay_type": "biochemical, Streptomyces aureofaciens Tü117", "conditions": "other: KM of the starter acyl-CoA, 200 μM methylmalonyl-CoA, 500 μM NADPH, 0.5 μM LipPks1+TE, pH 7.2, 23° C.", "procedure": "as §1, §2, §3"}, "[5]": {"test_system": "CC(C)(C)C(=O)SCCNC(=O)CCNC(=O)[C@H](O)C(C)(C)COP(=O)(O)OP(=O)(O)OC[C@H]1O[C@@H](n2cnc3c(N)ncnc32)[C@H](O)[C@@H]1OP(=O)(O)O", "test": "Steady-state kinetic analysis of LipPks1+TE, starter substrates (LC-MS quantification of products 1a-f)", "assay_type": "biochemical, Streptomyces aureofaciens Tü117", "conditions": "other: KM of the starter acyl-CoA, 200 μM methylmalonyl-CoA, 500 μM NADPH, 0.5 μM LipPks1+TE, pH 7.2, 23° C.", "procedure": "as §1, §2, §3"}, "[6]": {"test_system": "CC(C)C(=O)SCCNC(=O)CCNC(=O)[C@H](O)C(C)(C)COP(=O)(O)OP(=O)(O)OC[C@H]1O[C@@H](n2cnc3c(N)ncnc32)[C@H](O)[C@@H]1OP(=O)(O)O", "test": "Steady-state kinetic analysis of LipPks1+TE, starter substrates (LC-MS quantification of products 1a-f)", "assay_type": "biochemical, Streptomyces aureofaciens Tü117", "conditions": "other: KM of the starter acyl-CoA, 200 μM methylmalonyl-CoA, 500 μM NADPH, 0.5 μM LipPks1+TE, pH 7.2, 23° C.", "procedure": "as §1, §2, §3"}, "[7]": {"test_system": "CCC(=O)SCCNC(=O)CCNC(=O)[C@H](O)C(C)(C)COP(=O)(O)OP(=O)(O)OC[C@H]1O[C@@H](n2cnc3c(N)ncnc32)[C@H](O)[C@@H]1OP(=O)(O)O", "test": "Steady-state kinetic analysis of LipPks1+TE, starter substrates (LC-MS quantification of products 1a-f)", "assay_type": "biochemical, Streptomyces aureofaciens Tü117", "conditions": "other: KM of the starter acyl-CoA, 200 μM methylmalonyl-CoA, 500 μM NADPH, 0.5 μM LipPks1+TE, pH 7.2, 23° C.", "procedure": "as §1, §2, §3"}}}
{"compound": "CC(C)(COP(=O)(O)OP(=O)(O)OC[C@H]1O[C@@H](n2cnc3c(N)ncnc32)[C@H](O)[C@@H]1OP(=O)(O)O)[C@@H](O)C(=O)NCCC(=O)NCCSC(=O)CC(=O)O", "note": "[Malonyl-CoA]", "values": [{"measurement": "acceptance as extender substrate by the AT domain", "setting": "LipPks1+TE [1]", "value": "not accepted"}]}
{"compound": "CC(=O)SCCNC(=O)CCNC(=O)[C@H](O)C(C)(C)COP(=O)(O)OP(=O)(O)OC[C@H]1O[C@@H](n2cnc3c(N)ncnc32)[C@H](O)[C@@H]1OP(=O)(O)O", "note": "[acetyl-CoA]", "values": [{"measurement": "product formation with starter substrate", "setting": "LipPks1+TE [2]; 200 μM methylmalonyl-CoA with NADPH (data not shown)", "value": "No product was observed"}]}
{"compound": "CC(C)C(=O)SCCNC(=O)CCNC(=O)[C@H](O)C(C)(C)COP(=O)(O)OP(=O)(O)OC[C@H]1O[C@@H](n2cnc3c(N)ncnc32)[C@H](O)[C@@H]1OP(=O)(O)O", "note": "[isobutyryl-CoA]", "values": [{"measurement": "kcat", "setting": "LipPks1+TE [2]; starter acyl-CoA 20-320 μM, 200 μM methylmalonyl-CoA, 500 μM NADPH, 0.5 μM LipPks1+TE, pH 7.2, 23° C.", "value": 0.000883, "unit": "s⁻¹"}]}
{"compound": "LipPks1+TE (Kitasatospora aureofaciens)", "values": [{"measurement": "Km", "setting": "[3]", "value": 26.4, "unit": "µM"}, {"measurement": "kcat", "setting": "[3]", "value": 0.0006, "unit": "s⁻¹"}, {"measurement": "kcat/Km", "setting": "[3]", "value": 22.7, "unit": "M⁻¹ s⁻¹"}, {"measurement": "Km", "setting": "[4]", "value": 128.1, "unit": "µM"}, {"measurement": "kcat", "setting": "[4]", "value": 0.00483, "unit": "s⁻¹"}, {"measurement": "kcat/Km", "setting": "[4]", "value": 38, "unit": "M⁻¹ s⁻¹"}, {"measurement": "Km", "setting": "[5]", "value": 8.8, "unit": "µM"}, {"measurement": "kcat", "setting": "[5]", "value": "3.33e-05", "unit": "s⁻¹"}, {"measurement": "kcat/Km", "setting": "[5]", "value": 4.1, "unit": "M⁻¹ s⁻¹"}, {"measurement": "Km", "setting": "[6]", "value": 2.9, "unit": "µM"}, {"measurement": "kcat", "setting": "[6]", "value": 0.000883, "unit": "s⁻¹"}, {"measurement": "kcat/Km", "setting": "[6]", "value": 304.1, "unit": "M⁻¹ s⁻¹"}, {"measurement": "Km", "setting": "[7]", "value": 13.4, "unit": "µM"}, {"measurement": "kcat", "setting": "[7]", "value": 0.000933, "unit": "s⁻¹"}, {"measurement": "kcat/Km", "setting": "[7]", "value": 70.3, "unit": "M⁻¹ s⁻¹"}]}
